± gives the standard deviation of the averaged measurements.
Test system: ATP
Assay: switch fluorescence ratio, 500 uM ATP over buffer (Cy3 cluster intensity, sum of 5 cycles each) (fold (ratio)); higher = stronger signal-on switching upon ATP binding; sequences stand for … in TCGTCGGCAGCGTCAGATGTGTATAAGAGACAGTTTTTTTTTTTTTTTTTTTTTTTTT…TC
Conditions: aptamer strand: ATP DNA aptamer (quencher-CACCTGGGGGAGTATTGCGGAGGAAGG + anchor), 100 nM annealed; ATP concentration: 500 uM
In short: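 For every switch-domain sequence, the fluorescence ratio is the mean of per-cluster values, each being summed target-cycle Cy3 intensity over summed buffer-cycle Cy3 intensity. Clusters outside 100-1000 RFU were excluded. On a modified Illumina MiSeq flow-cell, the Cy3-labelled switching-strand clusters were annealed to 100 nM quencher-labelled ATP aptamer, imaged in selection buffer and then after 15 min with 500 uM ATP at 22 °C. Five such cycles were run, with NaOH stripping and re-annealing between them.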
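Also: ATP exposure 15 min at 22 °C before imaging.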

Row | Sequence | switch fluorescence ratio
1 | CAGAGGAGGC | 0.987 ± 0.016
2 | ATATGGACGC | 1.01 ± 0.046
3 | TTGAATTAGA | 0.965 ± 0.025
4 | CGGGTGGTTT | 0.988 ± 0.03
5 | AACGAGGGGA | 0.9716 ± 0.0045
6 | GATAGGGGTG | 1.03 ± 0.03
7 | AGGAGGGTAG | 1 ± 0.021
8 | TAATTGAAAA | 1.14 ± 0.15
9 | TTAAACGCTT | 1.02 ± 0.043
10 | CAGTTGGGTT | 1.02 ± 0.041
11 | GAGTACAAAA | 1.02 ± 0.015
12 | TGCCGAGGCC | 0.977 ± 0.0077
13 | ATTACGGTCT | 1.04 ± 0.02
14 | TCGAGTTGCA | 1 ± 0.033
15 | AAAGGGGGGC | 1 ± 0.057
16 | GGGTGGCTGG | 0.961 ± 0.049
17 | GGGATGTGGT | 1.01 ± 0.023
18 | CTGGGTTGGG | 1.01 ± 0.043
19 | AAAATCTGTT | 1.02 ± 0.061
20 | ACTTATTAAA | 1.03 ± 0.034
21 | AAAATTGCAT | 0.993 ± 0.021
22 | GTGGCACCTA | 0.988 ± 0.018
23 | CAATGTGAAA | 1.008 ± 0.0093
24 | TAGTTGTCCC | 1.02 ± 0.045
25 | GTATAAAGGG | 1.02 ± 0.048

Row | Sequence | switch fluorescence ratio
26 | AAGGGTGGGA | 1.01 ± 0.039
27 | AATCGGCGCT | 1.01 ± 0.045
28 | GGGATGGGGC | 1.04 ± 0.042
29 | GCTTGTTATG | 0.9931 ± 0.007
30 | TGTTGCAGTT | 1.03 ± 0.02
31 | GACGTTCTTG | 0.9862 ± 0.0027
32 | AGGGCGGGGT | 1.02 ± 0.033
33 | CTGTAATAAG | 1.09 ± 0.075
34 | ATAAGAACCG | 1.07 ± 0.017
35 | TGGTTTTTGA | 0.988 ± 0.038
36 | GGTTCAATTG | 1.03 ± 0.089
37 | TTGAAGGTGG | 1.08 ± 0.12
38 | GACTAGTGAA | 0.9906 ± 0.0079
39 | CGTGTTTTTC | 0.996 ± 0.026
40 | ACGGGGTTGC | 1.01 ± 0.017
41 | GGGAGAGGCT | 0.9764 ± 0.0016
42 | TTAAAAGCGT | 1.02 ± 0.013
43 | TACGAGGGTC | 0.969 ± 0.024
44 | GCGATGGATA | 0.96 ± 0.056
45 | AGGAGGTTCC | 1.02 ± 0.061
46 | TAGATGCACA | 0.9516 ± 0.0037
47 | AAATGTGGAA | 0.994 ± 0.018
48 | CTGCATCAGT | 1.04 ± 0.011
49 | AATGAACTAG | 1.01 ± 0.053
50 | TCGTATTGAG | 0.9482 ± 0.0077

Row | Sequence | switch fluorescence ratio
51 | GTTAACGGAC | 1.17 ± 0.098
52 | AGAGGACCGA | 1.04 ± 0.05
53 | TGACGGTGTC | 1.02 ± 0.0035
54 | TTTTTGGTAT | 1.01 ± 0.047
55 | TAGGGAATCA | 0.97 ± 0.014
56 | ATGGCTGTCA | 1.012 ± 0.0012
57 | GCCGCATTGA | 2.01 ± 0.11
58 | ATACCCTAGC | 1.09 ± 0.014
59 | GGCTCGGGGG | 1.03 ± 0.029
60 | TGTTCCTTTT | 1.03 ± 0.023
61 | CATAGGAGGG | 0.977 ± 0.056
62 | TGCAAAAGGC | 0.972 ± 0.013
63 | TTTAAGCGCC | 0.966 ± 0.0085
64 | TTGATATCAT | 0.97 ± 0.049
65 | CATTTTCGGC | 1.01 ± 0.039
66 | AGATAGAGTT | 0.997 ± 0.021
67 | CGGGGGAGGT | 0.989 ± 0.017
68 | CGTATTAAGC | 0.955 ± 0.015
69 | CGAAGCTGGT | 1.075 ± 0.0037
70 | GATATTTGTG | 0.995 ± 0.016
71 | GATTATTAGT | 1.012 ± 0.01
72 | TATTTTGTTA | 1.01 ± 0.047
73 | AGTGGGTTAG | 1.016 ± 0.0012
74 | CGGGCTGAGA | 1.045 ± 0.0048
75 | GATGAGGCGG | 0.9832 ± 0.0015

Row | Sequence | switch fluorescence ratio
76 | TAGGGAGCCT | 0.964 ± 0.016
77 | TATGGACA | 1.05 ± 0.01
78 | CCGGGTGTGG | 1.03 ± 0.028
79 | TAAAGCGTTT | 1.12 ± 0.27
80 | TGTTAAGGAA | 1.02 ± 0.029
81 | ACCAAGGGAG | 1.037 ± 0.0064
82 | GGACCAAGTG | 1.03 ± 0.025
83 | AGATGAGAGA | 1 ± 0.016
84 | GGGTTGGTTA | 1 ± 0.04
85 | GTTTGAAGGG | 0.974 ± 0.05
86 | AGCTGTAGTT | 1 ± 0.034
87 | GGGCTTGGGG | 0.999 ± 0.031
88 | TTGATTGGGC | 0.989 ± 0.025
89 | TCCTATACTA | 1.035 ± 0.0094
90 | AGGGGTCTCT | 0.985 ± 0.013
91 | TGCGTCCAAG | 1.02 ± 0.029
92 | ACGAAGTTAG | 0.998 ± 0.015
93 | GTGTAAATTT | 0.991 ± 0.04
94 | ATGGGTAGGG | 0.967 ± 0.017
95 | TCCCCAATTT | 1.13 ± 0.12
96 | ATGTGATAGT | 0.98 ± 0.015
97 | TGGCTTAGGG | 0.98975 ± 0.00065
98 | GGGGTTAGTT | 0.993 ± 0.023
99 | TATATATTTG | 1.03 ± 0.029
100 | TTTTGTCAAA | 1.02 ± 0.035

Reference: the supplement of paper PMC10126150
